Data taken from US20170306017A1 (VACCINEX, published 2017).
Read-outs that look alike come from different tables or passages of the source.

Columns and labels:
mouse CD100 [1] = target: T1, mouse CD100 (mouse, UniProt O09126 24-733, limits assumed); experiment: BIACORE surface plasmon resonance
T1 construct: also called murine CD100; muCD100
T1 sequence: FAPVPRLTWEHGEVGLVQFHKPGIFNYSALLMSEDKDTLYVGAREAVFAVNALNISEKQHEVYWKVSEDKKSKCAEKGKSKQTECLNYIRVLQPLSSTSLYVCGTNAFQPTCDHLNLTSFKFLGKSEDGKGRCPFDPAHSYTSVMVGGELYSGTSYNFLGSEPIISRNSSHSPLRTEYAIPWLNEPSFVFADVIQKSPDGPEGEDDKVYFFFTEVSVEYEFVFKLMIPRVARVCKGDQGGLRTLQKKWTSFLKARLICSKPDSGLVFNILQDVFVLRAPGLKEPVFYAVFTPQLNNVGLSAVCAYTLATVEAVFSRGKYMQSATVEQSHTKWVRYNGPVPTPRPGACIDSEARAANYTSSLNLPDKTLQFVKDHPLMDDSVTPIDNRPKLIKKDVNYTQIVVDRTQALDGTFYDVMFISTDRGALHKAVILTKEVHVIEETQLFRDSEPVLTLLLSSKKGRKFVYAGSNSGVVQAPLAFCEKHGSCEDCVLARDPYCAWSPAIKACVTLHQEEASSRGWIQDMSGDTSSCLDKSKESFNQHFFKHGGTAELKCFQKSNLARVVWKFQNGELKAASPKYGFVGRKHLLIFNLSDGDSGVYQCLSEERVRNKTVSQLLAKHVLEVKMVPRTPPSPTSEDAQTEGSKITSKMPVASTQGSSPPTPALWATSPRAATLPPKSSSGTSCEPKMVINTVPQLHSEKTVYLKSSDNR
Method: (§1) Binding affinities of anti-CD100 MAbs were determined using BIACORE® surface plasmon resonance technology.

marmoset CD100 = target: T2, marmoset CD100 (marmoset, UniProt A0A8I3W811 22-734); experiment: BIACORE surface plasmon resonance
T2 construct: also called marmCD100; monkey CD100
T2 sequence: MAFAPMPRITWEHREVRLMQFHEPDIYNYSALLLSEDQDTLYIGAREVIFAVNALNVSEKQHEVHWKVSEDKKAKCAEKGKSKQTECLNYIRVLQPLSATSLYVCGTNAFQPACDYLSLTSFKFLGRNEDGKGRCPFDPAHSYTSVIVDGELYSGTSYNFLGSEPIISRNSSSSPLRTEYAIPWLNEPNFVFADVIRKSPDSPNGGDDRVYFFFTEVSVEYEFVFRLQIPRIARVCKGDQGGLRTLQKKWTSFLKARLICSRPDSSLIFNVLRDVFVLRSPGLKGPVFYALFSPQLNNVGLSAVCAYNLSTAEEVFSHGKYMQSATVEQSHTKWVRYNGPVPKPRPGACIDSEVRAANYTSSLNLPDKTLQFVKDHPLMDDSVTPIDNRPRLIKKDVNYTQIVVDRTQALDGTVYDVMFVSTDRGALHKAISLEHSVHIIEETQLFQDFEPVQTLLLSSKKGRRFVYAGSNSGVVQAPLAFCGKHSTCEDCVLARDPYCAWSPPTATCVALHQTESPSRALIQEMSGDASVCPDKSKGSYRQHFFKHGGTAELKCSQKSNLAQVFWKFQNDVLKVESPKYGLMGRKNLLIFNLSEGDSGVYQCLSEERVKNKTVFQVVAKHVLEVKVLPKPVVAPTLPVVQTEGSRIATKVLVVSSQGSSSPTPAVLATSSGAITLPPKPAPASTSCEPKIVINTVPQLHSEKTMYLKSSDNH
Method: as §1

human CD100 [2] = target: T3, human CD100 (human, UniProt Q92854 22-734, limits assumed); experiment: BIACORE surface plasmon resonance
T3 construct: also called huCD100; SEMA4D
T3 sequence: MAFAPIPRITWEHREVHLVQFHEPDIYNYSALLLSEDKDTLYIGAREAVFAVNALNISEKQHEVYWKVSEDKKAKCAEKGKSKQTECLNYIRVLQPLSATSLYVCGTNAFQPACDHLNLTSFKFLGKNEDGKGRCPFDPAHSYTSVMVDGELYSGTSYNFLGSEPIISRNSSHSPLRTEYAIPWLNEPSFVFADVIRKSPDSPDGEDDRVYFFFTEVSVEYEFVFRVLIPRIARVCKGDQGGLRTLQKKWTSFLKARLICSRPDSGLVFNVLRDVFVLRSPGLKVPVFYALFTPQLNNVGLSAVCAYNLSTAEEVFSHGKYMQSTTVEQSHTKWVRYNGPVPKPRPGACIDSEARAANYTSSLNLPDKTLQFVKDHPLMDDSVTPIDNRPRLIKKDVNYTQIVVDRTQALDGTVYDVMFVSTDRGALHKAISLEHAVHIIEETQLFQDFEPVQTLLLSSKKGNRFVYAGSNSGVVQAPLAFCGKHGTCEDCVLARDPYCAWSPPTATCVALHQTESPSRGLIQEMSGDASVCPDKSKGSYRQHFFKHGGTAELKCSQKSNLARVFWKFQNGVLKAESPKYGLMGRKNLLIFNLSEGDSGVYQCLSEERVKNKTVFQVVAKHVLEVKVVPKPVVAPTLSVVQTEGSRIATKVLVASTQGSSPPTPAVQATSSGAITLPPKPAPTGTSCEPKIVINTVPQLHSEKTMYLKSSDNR
Method: as §1

human CD100-Fc = target: T4, human CD100-Fc (human, UniProt Q92854 22-734, limits assumed); experiment: competition ELISA on plate-coated human CD100-Fc; unlabelled antibody titrated first, competitor biotinylated MAb 67 detected with streptavidin-HRP
T4 sequence: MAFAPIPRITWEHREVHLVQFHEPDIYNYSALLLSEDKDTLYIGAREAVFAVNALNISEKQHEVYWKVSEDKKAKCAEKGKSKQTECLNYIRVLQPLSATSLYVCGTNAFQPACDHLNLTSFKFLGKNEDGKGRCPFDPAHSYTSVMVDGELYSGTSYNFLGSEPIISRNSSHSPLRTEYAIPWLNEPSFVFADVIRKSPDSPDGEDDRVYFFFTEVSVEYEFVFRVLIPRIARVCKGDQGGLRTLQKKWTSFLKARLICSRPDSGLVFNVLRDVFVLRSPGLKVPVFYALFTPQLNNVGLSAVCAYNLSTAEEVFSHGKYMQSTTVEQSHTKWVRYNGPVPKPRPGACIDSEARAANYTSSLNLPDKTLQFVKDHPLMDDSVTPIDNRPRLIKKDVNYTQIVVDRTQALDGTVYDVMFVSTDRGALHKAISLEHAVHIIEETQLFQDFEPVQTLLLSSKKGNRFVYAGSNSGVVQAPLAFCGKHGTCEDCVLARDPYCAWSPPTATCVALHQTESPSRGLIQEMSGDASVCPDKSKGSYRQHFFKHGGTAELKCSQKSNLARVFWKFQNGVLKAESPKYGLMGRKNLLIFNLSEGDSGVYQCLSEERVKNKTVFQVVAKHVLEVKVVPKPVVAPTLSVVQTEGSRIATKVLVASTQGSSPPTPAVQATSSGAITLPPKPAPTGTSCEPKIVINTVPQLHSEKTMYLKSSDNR
Method: For the ELISA protocol, an ELISA plate was coated with CD100-Fc. […] The antibodies were allowed to bind to CD100 and unbound antibody was wash away. Biotinylated MAb 67 was added. Biotinylated MAb 67 bound to CD100 was detected using Streptavidin-HRP.

mouse CD100 [3] = target: T1, mouse CD100; experiment: BIACORE surface plasmon resonance; remark: listed apart in the source
human CD100 [4] = target: T3, human CD100; experiment: BIACORE surface plasmon resonance; remark: listed apart in the source

B1: MAb 2503 (antibody, V domains shown)
VH: QVQLVQSGAEVKKPGSSVKVSCKASGYSFSDYYMHWVRQAPGQGLEWMGQINPTTGGASYNQKFKGKATITVDKSTSTAYMELSSLRSEDTAVYYCARYYYGRHFDVWGQGTTVTVSS
VL: DIVMTQSPDSLAVSLGERATINCKASQSVDYDGDSYMNWYQQKPGQPPKLLIYAASNLESGVPDRFSGSGSGTDFTLTISSLQAEDVAVYYCQQSNEDPYTFGQGTKLEIK
notes: also called humanized MAb 67; H2160/L553
Mouse CD100 [1]
  Kd: 1.5 nM
Marmoset CD100
  Kd: 2.4 nM
Human CD100 [2]
  Kd: 5.4 nM
Human CD100-Fc
  IC50 (read off the curve): ~0.2 nM

B2: MAb 67 (antibody, IgG1, V domains shown)
VH: QVQLQQSGPELVKPGASVKISCKASGYSFSDYYMHWVKQSPENSLEWIGQINPTTGGASYNQKFKGKATLTVDKSSSTAYMQLKSLTSEESAVYYCTRYYYGRHFDVWGQGTTVTVSS
VL: DIVMTQSPASLAVSLGQRATISCKASQSVDYDGDSYMNWYQQKPGQPPKLLIYAASNLESGIPARFSGSGSGTDFTLNIHPVEEEDAATYYCQQSNEDPYTFGGGTKLEIK
notes: also called mouse MAb 67; murine MAb 67
Marmoset CD100
  Kd: 2.7 nM

B3: MAb 76 (antibody, IgG2b, V domains shown)
VH: QVQLQQSGAELAKPGASVKMSCKASGYTFTRYWMHWVKQRPGQGLEWIGYINPSTGYSDYNQKFKDKATLTADKSSSTAYMQLSSLTSEDSAVYYCARDPYGWTMDSWGQGTLVTVSS
VL: DIQMTQSPSSLSASLGDTITITCHASQNINVWLSWYQQKPGNIPKLLIYKASNLHTGVPSRFSGSGSGTGFTLTISSLQPEDIATYYCQQGQSYPYTFGGGTKLEIK
notes: also called clone 76-1; 76-1
Mouse CD100 [3]
  Kd: 0.33 nM
Human CD100 [4]
  Kd: 0.12 nM
